Measured values reported in patent US20240066131A1 (Protagonist Therapeutics, Inc., priority 2020, published 2024).
Starred links: 1 amine or outer side, 2 acyl side, 3 side chain; linkers in the order of their positions; H or OH if unused. Positions of bridges follow the written chain, without caps; N, C: chain ends. Non-standard residues stand in square brackets, D forms with d. Groups on a side chain read outwards from the residue. No end group written: not given here. *: point of attachment. Gal = N6-(4-(galactopyranosyloxy)butanoyl) on the lysine side chain; N_Butyl_Phe = CCCCN([C@@H](Cc1ccccc1)C(=O)[*:2])[*:1]; C18 diacid = O=C(O)CCCCCCCCCCCCCCCCC(=O)*; Dip = N[C@H](C(=O)O)C(c1ccccc1)c1ccccc1; γGlu = O=C(O)[C@H](CCC(=O)[*:2])N[*:1]; Palmitoyl = CCCCCCCCCCCCCCCC(=O)*; Myristoyl = CCCCCCCCCCCCCC(=O)*; β3hF = N[C@H](CC(=O)O)Cc1ccccc1; NMeK = CN[C@@H](CCCCN)C(=O)O; Isovaleryl = CC(C)CC(=O)*; Dap = NC[C@H](N)C(=O)O; AEEA = NCCOCCOCC(=O)O; Propionyl = CCC(=O)*; Ahx = NCCCCCC(=O)O; βAla = NCCC(=O)O

T1: human ferroportin (SLC40A1) fused in frame with GFP, stably expressed in HEK293 cells (human, UniProt Q9NP59 1-571)
T1 sequence (looked up): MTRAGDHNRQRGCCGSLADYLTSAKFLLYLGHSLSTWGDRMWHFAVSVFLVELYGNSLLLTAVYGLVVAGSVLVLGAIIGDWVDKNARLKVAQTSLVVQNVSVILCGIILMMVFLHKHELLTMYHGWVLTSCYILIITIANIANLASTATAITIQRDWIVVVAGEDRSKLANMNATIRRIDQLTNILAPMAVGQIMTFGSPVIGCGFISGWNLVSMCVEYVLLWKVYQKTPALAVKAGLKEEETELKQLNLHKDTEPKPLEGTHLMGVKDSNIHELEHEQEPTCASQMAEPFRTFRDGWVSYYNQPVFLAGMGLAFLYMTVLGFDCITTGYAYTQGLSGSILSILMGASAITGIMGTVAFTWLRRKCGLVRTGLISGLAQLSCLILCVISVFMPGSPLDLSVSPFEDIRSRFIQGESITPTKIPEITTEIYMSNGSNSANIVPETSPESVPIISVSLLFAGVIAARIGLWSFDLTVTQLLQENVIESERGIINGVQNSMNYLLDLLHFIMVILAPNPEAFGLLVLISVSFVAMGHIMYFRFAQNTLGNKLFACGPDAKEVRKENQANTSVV

B1: Isovaleric Acid-E-T-H-F-P-A-I-[Lys(Ahx_C14_acid)]-F-E-P-R-S-K-G-[(D)Ala]-NH2 (peptide)
peptide: Isovaleryl-ETHFPAIK([Ahx-Myristoyl])FEPRSKG[dA]-NH2
SMILES: CCCCCCCCCCCCCC(=O)NCCCCCC(=O)NCCCC[C@H](NC(=O)[C@@H](NC(=O)[C@H](C)NC(=O)[C@@H]1CCCN1C(=O)[C@H](Cc1ccccc1)NC(=O)[C@H](Cc1c[nH]cn1)NC(=O)[C@@H](NC(=O)[C@H](CCC(=O)O)NC(=O)CC(C)C)[C@@H](C)O)[C@@H](C)CC)C(=O)N[C@@H](Cc1ccccc1)C(=O)N[C@@H](CCC(=O)O)C(=O)N1CCC[C@H]1C(=O)N[C@@H](CCCNC(=N)N)C(=O)N[C@@H](CO)C(=O)N[C@@H](CCCCN)C(=O)NCC(=O)N[C@H](C)C(N)=O
B2: Isovaleric Acid-[Lys(1PEG2_1PEG2_Ahx_C18_Diacid)]-T-H-[Dpa]-P-A-I-[(D)Lys]-[bhPhe]-NH2 (peptide)
peptide: Isovaleryl-K([AEEA-AEEA-Ahx-C18 diacid])TH[Dip]PAI[dK][β3hF]-NH2
SMILES: CC[C@H](C)[C@H](NC(=O)[C@H](C)NC(=O)[C@@H]1CCCN1C(=O)[C@@H](NC(=O)[C@H](Cc1c[nH]cn1)NC(=O)[C@@H](NC(=O)[C@H](CCCCNC(=O)COCCOCCNC(=O)COCCOCCNC(=O)CCCCCNC(=O)CCCCCCCCCCCCCCCCC(=O)O)NC(=O)CC(C)C)[C@@H](C)O)C(c1ccccc1)c1ccccc1)C(=O)N[C@H](CCCCN)C(=O)N[C@H](CC(N)=O)Cc1ccccc1
B3: Ac-[Lys(1PEG2_1PEG2_Ahx_C18_Diacid)]-T-H-[Dpa]-P-A-I-[(D)Lys]-[bhPhe]-NH2 (peptide)
peptide: Ac-K([AEEA-AEEA-Ahx-C18 diacid])TH[Dip]PAI[dK][β3hF]-NH2
SMILES: CC[C@H](C)[C@H](NC(=O)[C@H](C)NC(=O)[C@@H]1CCCN1C(=O)[C@@H](NC(=O)[C@H](Cc1c[nH]cn1)NC(=O)[C@@H](NC(=O)[C@H](CCCCNC(=O)COCCOCCNC(=O)COCCOCCNC(=O)CCCCCNC(=O)CCCCCCCCCCCCCCCCC(=O)O)NC(C)=O)[C@@H](C)O)C(c1ccccc1)c1ccccc1)C(=O)N[C@H](CCCCN)C(=O)N[C@H](CC(N)=O)Cc1ccccc1
B4: Isovaleric Acid-E-T-H-F-P-E-I-[Lys(1PEG2_1PEG2_IsoGlu_C18_Diacid)]-F-E-P-R-S-K-G-Dap-K-NH2 (peptide)
peptide: Isovaleryl-ETHFPEIK([AEEA-AEEA-γGlu-C18 diacid])FEPRSKG[Dap]K-NH2
modifications: lactam 6-16
SMILES: CC[C@H](C)[C@@H]1NC(=O)[C@@H](NC(=O)[C@@H]2CCCN2C(=O)[C@H](Cc2ccccc2)NC(=O)[C@H](Cc2c[nH]cn2)NC(=O)[C@@H](NC(=O)[C@H](CCC(=O)O)NC(=O)CC(C)C)[C@@H](C)O)CCC(=O)NC[C@@H](C(=O)N[C@@H](CCCCN)C(N)=O)NC(=O)CNC(=O)[C@H](CCCCN)NC(=O)[C@H](CO)NC(=O)[C@H](CCCNC(=N)N)NC(=O)[C@@H]2CCCN2C(=O)[C@H](CCC(=O)O)NC(=O)[C@H](Cc2ccccc2)NC(=O)[C@H](CCCCNC(=O)COCCOCCNC(=O)COCCOCCNC(=O)CC[C@H](NC(=O)CCCCCCCCCCCCCCCCC(=O)O)C(=O)O)NC1=O
B5: Ac-[Lys(1PEG2_1PEG2_IsoGlu_C18_Diacid)]-T-H-[Dpa]-P-A-I-[(D)Lys]-[bhPhe]-NH2 (peptide)
peptide: Ac-K([AEEA-AEEA-γGlu-C18 diacid])TH[Dip]PAI[dK][β3hF]-NH2
SMILES: CC[C@H](C)[C@H](NC(=O)[C@H](C)NC(=O)[C@@H]1CCCN1C(=O)[C@@H](NC(=O)[C@H](Cc1c[nH]cn1)NC(=O)[C@@H](NC(=O)[C@H](CCCCNC(=O)COCCOCCNC(=O)COCCOCCNC(=O)CC[C@H](NC(=O)CCCCCCCCCCCCCCCCC(=O)O)C(=O)O)NC(C)=O)[C@@H](C)O)C(c1ccccc1)c1ccccc1)C(=O)N[C@H](CCCCN)C(=O)N[C@H](CC(N)=O)Cc1ccccc1
B6: Isovaleric Acid-[Lys(1PEG2_1PEG2_IsoGlu_C18_Diacid)]-T-H-[Dpa]-P-A-I-[(D)Lys]-[bhPhe]-NH2 (peptide)
peptide: Isovaleryl-K([AEEA-AEEA-γGlu-C18 diacid])TH[Dip]PAI[dK][β3hF]-NH2
SMILES: CC[C@H](C)[C@H](NC(=O)[C@H](C)NC(=O)[C@@H]1CCCN1C(=O)[C@@H](NC(=O)[C@H](Cc1c[nH]cn1)NC(=O)[C@@H](NC(=O)[C@H](CCCCNC(=O)COCCOCCNC(=O)COCCOCCNC(=O)CC[C@H](NC(=O)CCCCCCCCCCCCCCCCC(=O)O)C(=O)O)NC(=O)CC(C)C)[C@@H](C)O)C(c1ccccc1)c1ccccc1)C(=O)N[C@H](CCCCN)C(=O)N[C@H](CC(N)=O)Cc1ccccc1
B7: Isovaleric Acid-E-T-H-F-P-A-I-[Lys(Ahx_C14_acid)]-F-E-P-R-S-K-G-A-[(D)Lys]-NH2 (peptide)
peptide: Isovaleryl-ETHFPAIK([Ahx-Myristoyl])FEPRSKGA[dK]-NH2
SMILES: CCCCCCCCCCCCCC(=O)NCCCCCC(=O)NCCCC[C@H](NC(=O)[C@@H](NC(=O)[C@H](C)NC(=O)[C@@H]1CCCN1C(=O)[C@H](Cc1ccccc1)NC(=O)[C@H](Cc1c[nH]cn1)NC(=O)[C@@H](NC(=O)[C@H](CCC(=O)O)NC(=O)CC(C)C)[C@@H](C)O)[C@@H](C)CC)C(=O)N[C@@H](Cc1ccccc1)C(=O)N[C@@H](CCC(=O)O)C(=O)N1CCC[C@H]1C(=O)N[C@@H](CCCNC(=N)N)C(=O)N[C@@H](CO)C(=O)N[C@@H](CCCCN)C(=O)NCC(=O)N[C@@H](C)C(=O)N[C@H](CCCCN)C(N)=O
B8: Isovaleric Acid-E-T-H-F-P-A-I-[Lys(Ahx_C14_acid)]-F-E-P-R-[(D)Ser]-NH2 (peptide)
peptide: Isovaleryl-ETHFPAIK([Ahx-Myristoyl])FEPR[dS]-NH2
SMILES: CCCCCCCCCCCCCC(=O)NCCCCCC(=O)NCCCC[C@H](NC(=O)[C@@H](NC(=O)[C@H](C)NC(=O)[C@@H]1CCCN1C(=O)[C@H](Cc1ccccc1)NC(=O)[C@H](Cc1c[nH]cn1)NC(=O)[C@@H](NC(=O)[C@H](CCC(=O)O)NC(=O)CC(C)C)[C@@H](C)O)[C@@H](C)CC)C(=O)N[C@@H](Cc1ccccc1)C(=O)N[C@@H](CCC(=O)O)C(=O)N1CCC[C@H]1C(=O)N[C@@H](CCCNC(=N)N)C(=O)N[C@H](CO)C(N)=O

These binders were tested against T1, human ferroportin (SLC40A1) fused in … (assay: cell-based or functional assay).

| FPN IC50 | Binder |
| --- | --- |
| 5730 nM | Isovaleryl-ETHFPAIK([γGlu-Myristoyl])FEPRSKG[dA]-NH2 [Isovaleric Acid-E-T-H-F-P-A-I-[Lys(IsoGlu_C14_acid)]-F-E-P-R-S-K-G-[(D)Ala]-NH2] |
| 822 nM | Isovaleryl-ETHFPAIK([γGlu-Myristoyl])FEPRSKGAK-NH2 [Isovaleric Acid-E-T-H-F-P-A-I-[Lys(IsoGlu_C14_acid)]-F-E-P-R-S-K-G-A-K-NH2] |
| 1070 nM | B1 |
| 758 nM | Isovaleryl-K(Gal)TH[Dip]PK([Ahx-Palmitoyl])[β3hF]-NH2 [Isovaleric Acid-[Lys(Gal-T-H-[Dpa]-P-[Lys(Ahx_Palm)]-[bhPhe]-NH2] |
| 218 nM | Propionyl-LTH[Dip]PK([Ahx-Palmitoyl])[N_Butyl_Phe] [[Propionic_acid]-L-T-H-[Dpa]-P-[Lys(Ahx_Palm)]-N_Butyl_Phe] |
| 1280 nM | B2 |
| 718 nM | Isovaleryl-ETHFPAIK([γGlu-Myristoyl])FEPRSKGA[dK]-NH2 [Isovaleric Acid-E-T-H-F-P-A-I-[Lys(IsoGlu_C14_acid)]-F-E-P-R-S-K-G-A-[(D)Lys]-NH2] |
| 3380 nM | Cyclohexanoic_Acid-LTH[Dip]PK([Ahx-Palmitoyl])[N_Butyl_Phe] [Cyclohexanoic_Acid-L-T-H-[Dpa]-P-[Lys(Ahx_Palm)]-N_Butyl_Phe] |
| > 3000 nM | B3 |
| 150 nM | Isovaleryl-K(GalNH)TH[Dip]PAIK([Ahx-Palmitoyl])[β3hF]-NH2 [Isovaleric Acid-[Lys(GalNH-T-H-[Dpa]-P-A-I-[Lys(Ahx_Palm)]-[bhPhe]-NH2] |
| 469 nM | Isovaleryl-LTH[Dip]PK([βAla-Palmitoyl])[N_Butyl_Phe] [Isovaleric Acid-L-T-H-[Dpa]-P-[Lys(bAla_Palm)]-N_Butyl_Phe] |
| > 10000 nM | B4 |
| > 3000 nM | Isovaleryl-ETHFPAIK([Ahx-C10 acid])FEPRSKGAK-NH2 [Isovaleric Acid-E-T-H-F-P-A-I-[Lys(Ahx_C10_acid)]-F-E-P-R-S-K-G-A-K-NH2] |
| 3370 nM | B5 |
| 2160 nM | B6 |
| 1160 nM | B7 |
| 1440 nM | Isovaleryl-LTH[Dip]PK([AEEA-AEEA-γGlu-C18 diacid])[N_Ethyl_Nap] [Isovaleric Acid-L-T-H-[Dpa]-P-[Lys(1PEG2_1PEG2_IsoGlu_C18_Diacid)]-N_Ethyl_Nap] |
| 1070 nM | Isovaleryl-ETHFPAIK([Ahx-C12 acid])FEPRSKGAK-NH2 [Isovaleric Acid-E-T-H-F-P-A-I-[Lys(Ahx_C12_acid)]-F-E-P-R-S-K-G-A-K-NH2] |
| 222 nM | Isovaleryl-LTH[Dip]PK([γGlu-Palmitoyl])[N_Butyl_Phe] [Isovaleric Acid-L-T-H-[Dpa]-P-[Lys(IsoGlu_Palm)]-N_Butyl_Phe] |
| 1160 nM | B8 |
| 71 nM | Isovaleryl-[meL]TH[Dip]P[NMeK]([Ahx-Palmitoyl])-N_Butyl_Phe [Isovaleric Acid-meL-T-H-[Dpa]-P-NMe[Lys(Ahx_Palm)]-N_Butyl_Phe] |
| 3300 nM | Cyclohexanecarboxylic_Acid-LTH[Dip]PK([Ahx-Palmitoyl])[N_Butyl_Phe] [Cyclohexanecarboxylic_Acid-L-T-H-[Dpa]-P-[Lys(Ahx_Palm)]-N_Butyl_Phe] |
| 3310 nM | Isovaleryl-ETHFPAIK([γGlu-C10 acid])FEPRSKGAK-NH2 [Isovaleric Acid-E-T-H-F-P-A-I-[Lys(IsoGlu_C10_acid)]-F-E-P-R-S-K-G-A-K-NH2] |
| 4490 nM | Isovaleryl-ETHFPAIK([γGlu-C12 acid])FEPRSKGAK-NH2 [Isovaleric Acid-E-T-H-F-P-A-I-[Lys(IsoGlu_C12_acid)]-F-E-P-R-S-K-G-A-K-NH2] |
| 62.6 nM | Isovaleryl-LTH[Dip]P[NMeK]([Ahx-Palmitoyl])[N_Butyl_Phe] [Isovaleric Acid-L-T-H-[Dpa]-P-NMe[Lys(Ahx_Palm)]-N_Butyl_Phe] |
| 689 nM | Isovaleryl-ETHFPAIK([Ahx-Myristoyl])FEPRSKGAK-NH2 [Isovaleric Acid-E-T-H-F-P-A-I-[Lys(Ahx_C14_acid)]-F-E-P-R-S-K-G-A-K-NH2] |
| 3680 nM | Isovaleryl-ETHFPAIK([γGlu-Myristoyl])FEPR[dS]-NH2 [Isovaleric Acid-E-T-H-F-P-A-I-[Lys(IsoGlu_C14_acid)]-F-E-P-R-[(D)Ser]-NH2] |
